This passage reports response (% of pre-bleach) results from article PMC5548745, “Agonist-induced dimer dissociation as a macromolecular step in G protein-coupled receptor signaling” (Nature Communications, 2017).

B1: Frizzled 6 (FZD6), wild type, expressed as V5-FZD6-mCherry and as FZD6-GFP [human] / Frizzled 6 (FZD6), wild type, expressed as V5-FZD6-mCherry and as FZD6-GFP [human] (parent)
chain 1: HSLFTCEPITVPRCMKMAYNMTFFPNLMGHYDQSIAAVEMEHFLPLANLECSPNIETFLCKAFVPTCIEQIHVVPPCRKLCEKVYSDCKKLIDTFGIRWPEELECDRLQYCDETVPVTFDPHTEFLGPQKKTEQVQRDIGFWCPRHLKTSGGQGYKFLGIDQCAPPCPNMYFKSDELEFAKSFIGTVSIFCLCATLFTFLTFLIDVRRFRYPERPIIYYSVCYSIVSLMYFIGFLLGDSTACNKADEKLELGDTVVLGSQNKACTVLFMLLYFFTMAGTVWWVILTITWFLAAGRKWSCEAIEQKAVWFHAVAWGTPGFLTVMLLAMNKVEGDNISGVCFVGLYDLDASRYFVLLPLCLCVFVGLSLLLAGIISLNHVRQVIQHDGRNQEKLKKFMIRIGVFSGLYLVPLVTLLGCYVYEQVNRITWEITWVSDHCRQYHIPCPYQAKAKARPELALFMIKYLMTLIVGISAVFWVGSKKTCTEWAGFFKRNRKRDPISESRRVLQESCEFFLKHNSKVKHKKKHYKPSSHKLKVISKSMGTSTGATANHGTSAVAITSHDYLGQETLTEIQTSPETSMREVKADGASTPRLREQDCGEPASPAASISRLSGEQVDGKGQAGSVSESARSEGRISPKSDITDTGLAQSNNLQVPSSSEPSSLKGSTSLLVHPVSGVRKEQGGGCHSDT
chain 2: B1 chain 1

Variants of B1 are the subject of the first test. The experiment in a line: dcFRAP. The settings on record: with Frizzled 6 (FZD6), GFP channel (FZD6-GFP dimer mutant), without CL (before biotin-anti-V5/avidin surface crosslinking of V5-FZD6-mCherry), N = 23 ROIs, read off a plot.
For chain 1 D347A R350A Y351A, the response (% of pre-bleach) was 85.

Still in this test, the particulars now being: with Frizzled 6 (FZD6), GFP channel (FZD6-GFP dimer control mutant), without CL (before crosslinking of V5-FZD6-mCherry), N = 75 ROIs, read off a plot.
On to chain 1 D347E R350K Y351F, for which the response (% of pre-bleach) came to 85.
